Where a chain is given by its changes, count along the chain named. Numbers in names are those of the source. Blank lines part the entries; values can stand above or below the binder they belong to.
Experiments:
[1] = target: T1, human TREM2/DAP12 fusion protein in BW5147.G.1.4 NFAT-luciferase reporter cells (human, UniProt O43914 41-113, limits assumed); assay: cell-based or functional assay
[2] = target: T1, human TREM2/DAP12 fusion protein in …; assay: cell-based or functional assay; remark: listed apart in the source
[3] = target: T2, human TREM2 expressed on cells (human, UniProt Q9NZC2 19-230); assay: FACS, BW cells
T2 construct: also called huT2 BW; cell expressed TREM2
T2 sequence: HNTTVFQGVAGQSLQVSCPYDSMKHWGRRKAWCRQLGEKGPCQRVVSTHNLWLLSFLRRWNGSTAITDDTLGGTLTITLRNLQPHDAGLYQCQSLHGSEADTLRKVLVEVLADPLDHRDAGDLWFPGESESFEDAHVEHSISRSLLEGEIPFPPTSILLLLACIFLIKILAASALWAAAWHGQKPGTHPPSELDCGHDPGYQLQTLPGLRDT
Experimental: To examine cell binding of anti-TREM2 antibodies, recombinant, human TREM2-expressing BW5147. G.1.4 cells (ATCC® TIB48™) were established by stably expressing either mouse TREM2 or human TREM2 together with Dap12 using viral infection. Cells were harvested by scraping, washed in PBS, counted and plated on 96-well U bottom plates at 1×10⁵ cells/well. The plates were spun at 1,400 rpm for 3 minutes and primary anti-TREM2 or control antibodies were added in FACS buffer (PBS+2% FBS) and incubated on ice for one hour. Cells were subsequently centrifuged as before and washed thrice with FACS buffer. Cells were then incubated with anti-human PE conjugated secondary antibody (BD Biosciences) in FACS buffer for 30 minutes on ice. Cells were again washed thrice with FACS buffer and analyzed on a BD FACS Canto. Binding was measured as mean fluorescence intensity in the […].

[4] = target: T1, human TREM2/DAP12 fusion protein in …; assay: cell-based or functional assay; remark: listed apart in the source
[5] = target: T2, human TREM2 expressed on cells; assay: cell-based or functional assay
[6] = target: T1, human TREM2/DAP12 fusion protein in …; assay: cell-based or functional assay; remark: listed apart in the source
[7] = target: T1, human TREM2/DAP12 fusion protein in …; assay: cell-based or functional assay; remark: listed apart in the source
[8] = target: T1, human TREM2/DAP12 fusion protein in …; assay: cell-based or functional assay; remark: listed apart in the source
[9] = target: T1, human TREM2/DAP12 fusion protein in …; assay: cell-based or functional assay; remark: listed apart in the source
[10] = target: T1, human TREM2/DAP12 fusion protein in …; assay: cell-based or functional assay; remark: listed apart in the source

Cell binding (FOB) [3]: 86 fold over background
Soluble luciferase activation at 10 µg/ml [4]: 6.52 fold over control
B3: AL2p-h76 (antibody, IgG1, V domains shown)
VH: QVQLVQSGAEVKKPGASVKVSCKASGYAFSSSWMNWVRQAPGQRLEWIGRIYPGDGDTNYAQKFQGRATITADTSASTAYMELSSLRSEDTAVYFCARLLRNQPGESYAMDYWGQGTLVTVSS
VL: DVVMTQSPDSLAVSLGERATINCRSSQSLVHSNGYTYLHWYQQKPGQSPKLLIYKVSNRFSGVPDRFSGSGSGTDFTLTISSLQAEDVAVYYCSQSTRVPYTFGGGTKVEIK
notes: IgG1; Fab in monovalent BLI

Luciferase activation plate bound 33 nM IgG [6]: 22.1 FOC
B5: AL2p-14 (antibody, IgG1, V domains shown)
VH: B3 VH with A16S, S32H, R44G, I48M, A68V, T74E, A76T, F95Y
VL: GVVMTQTPLSLSVTPGQPASISCRSSRSLVHSNGYTYLHWYLQKPGQSPQLLIYKVSNRFSGVPDRFSGSGSGTDFTLKISRVEAEDVGVYYCSQSTRVPYTFGQGTKLEIK

Cell binding (FOB) [3]: 79 fold over background
EC50 (read off the curve); NFAT:luciferase luminescence, BWZ reporter cells, soluble antibody, 6 h [7]: ~2 µg/mL
EC50 (read off the curve); NFAT:luciferase luminescence, BWZ reporter cells co-cultured 1:1 with THP-1 cells, 6 h [8]: ~1 µg/mL
B7: AL2p (parental mouse anti-TREM2 antibody) (antibody, human IgG1, V domains shown)
VH: QVQLQQSGPELVKPGASLKISCKASGYAFSSSWMNWVKQRPGKGLEWIGRIYPGDGDTNYNGEFRVRATLTADTSSTTAYMQLSSLTSEDSAVYFCARLLRNQPGESYAMDYWGQGASVTVSS
VL: DVVMTQTPLSLPVSLGDQASISCRSSQSLVHSNGYTYLHWYLQKPGQSPKLLIYKVSNRFSGVPDRFSGSGSGTDFTLKISRVEADDLGVYFCSQSTRVPYTFGGGTKLEIK
notes: Mouse variable regions; tested as Fab, as human-mouse chimera (human IgG1 Fc) and as msIgG1; see assay; also called 9F5; 9F5a

EC50 (read off the curve); NFAT:luciferase luminescence, BWZ reporter cells co-cultured 1:1 with THP-1 cells, 6 h [8]: ~0.3 µg/mL
B10: AL2p huIgG1 E430G (antibody, V domains shown)
VH: B7 VH
VL: B7 VL

Cell binding (FOB) [3]: 91 fold over background
B11: AL2p-h43 (antibody, IgG1, V domains shown)
VH: B3 VH with V18L, A61N, Q62G, K63E, Q65R, G66V, I70L
VL: B5 VL with G1D, R27Q
notes: IgG1; Fab in monovalent BLI

Cell binding (FOB) [3]: 126 fold over background
B12: AL2p-h90 (antibody, IgG1, V domains shown)
VH: B3 VH with A68V, F95Y
VL: DVQMTQSPSSLSASVGDRVTITCRSSQSLVHSNGYTYLHWYQQKPGKSPKLLIYKVSNRFSGVPSRFSGSGSGTDFTLTISSLQPEDFATYYCSQSTRVPYTFGGGTKVEIK
notes: IgG1; Fab in monovalent BLI

The next lines start with the binder.

B1: AL2p-58 huIgG1 PSEG (antibody)
heavy: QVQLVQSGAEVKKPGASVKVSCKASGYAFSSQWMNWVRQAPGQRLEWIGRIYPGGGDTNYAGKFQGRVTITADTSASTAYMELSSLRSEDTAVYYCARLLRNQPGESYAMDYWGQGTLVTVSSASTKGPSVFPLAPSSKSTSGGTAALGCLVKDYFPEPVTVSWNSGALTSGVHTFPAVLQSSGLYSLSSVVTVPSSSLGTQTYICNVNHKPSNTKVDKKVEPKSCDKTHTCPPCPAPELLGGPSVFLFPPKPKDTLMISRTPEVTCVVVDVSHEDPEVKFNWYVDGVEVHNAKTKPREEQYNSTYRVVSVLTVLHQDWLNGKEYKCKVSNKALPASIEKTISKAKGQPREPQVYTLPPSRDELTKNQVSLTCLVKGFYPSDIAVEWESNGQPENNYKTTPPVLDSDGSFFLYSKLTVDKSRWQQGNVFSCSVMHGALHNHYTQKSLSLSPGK
light: DVVMTQSPDSLAVSLGERATINCRSSQSLVHSNRYTYLHWYQQKPGQSPKLLIYKVSNRFSGVPDRFSGSGSGTDFTLKISRVEAEDVGVYYCSQSTRVPYTFGQGTKLEIKRTVAAPSVFIFPPSDEQLKSGTASVVCLLNNFYPREAKVQWKVDNALQSGNSQESVTEQDSKDSTYSLSSTLTLSKADYEKHKVYACEVTHQGLSSPVTKSFNRGEC
plate bound signal activation, fold over AL2p [1]: 10 fold

B2: AL2p-58 (antibody, V domains shown)
VH: B3 VH with S32Q, D55G, Q62G, A68V, F95Y
VL: B3 VL with G34R, T79K, S82R, L83V, Q84E, A89G, G105Q, V109L
EC50 (read off the curve); NFAT:luciferase luminescence, BW reporter cells, soluble IgG [2]: ~1 µg/mL

B4: AL2p-60 (antibody, IgG1, V domains shown)
VH: B3 VH with A16S, S32Q, R44G, I48M, D55G, Q62R, A68V, T74E, A76T, F95Y
VL: B5 VL with R27Q, G34R, F60R
viability EC50, dendritic cells D558 [5]: 0.152 nM
viability EC50, dendritic cells D559 [5]: 0.244 nM
viability EC50, dendritic cells D560 [5]: 0.178 nM
viability EC50, macrophages D559 [5]: 0.194 nM
viability EC50, macrophages D560 [5]: 0.154 nM

B6: AL2p-59 (antibody, V domains shown)
VH: QVQLVQSGAEVKKPGSSVKVSCKASGYAFSSHWMNWVRQAPGQGLEWMGRIYPGEGQTNYAQKRQGRVTITADESTSTAYMELSSLRSEDTAVYYCARLLRNQPGESYAMDYWGQGTLVTVSS
VL: B5 VL with S25T, R27Q, G34Q, F60V
EC50 (read off the curve); NFAT:luciferase luminescence, BW reporter cells, soluble IgG [2]: ~2 µg/mL

B8: AL2p-58 msFc (antibody)
chain 1: B3 VH with S32Q, D55G, Q62G, A68V, F95Y
chain 2: B3 VL with G34R, T79K, S82R, L83V, Q84E, A89G, G105Q, V109L
EC50 (read off the curve); NFAT:luciferase luminescence, BWZ reporter cells, soluble IgG [9]: ~0.7 µg/mL

B9: AL2p-31 msFc (antibody, V domains shown)
VH: B6 VH with H32Q, E55G, Q57D, Q62R, R64F
VL: B5 VL with R27Q, F60R
EC50 (read off the curve); NFAT:luciferase luminescence, BWZ reporter cells, soluble IgG [9]: ~0.8 µg/mL
EC50 (read off the curve); NFAT:luciferase luminescence, BWZ reporter cells, plate bound IgG [10]: ~3 µg/mL

Reference: US20190040130A1 (Alector, published 2019)
